Results on 1 molecule are retold here after patent US20020123614A1.

Common to all, as to conditions: remark: other sources report otherwise
The target of experiment [1] is T1, recombinant ICAM-1 Fc chimera, P05362.
T1 chain: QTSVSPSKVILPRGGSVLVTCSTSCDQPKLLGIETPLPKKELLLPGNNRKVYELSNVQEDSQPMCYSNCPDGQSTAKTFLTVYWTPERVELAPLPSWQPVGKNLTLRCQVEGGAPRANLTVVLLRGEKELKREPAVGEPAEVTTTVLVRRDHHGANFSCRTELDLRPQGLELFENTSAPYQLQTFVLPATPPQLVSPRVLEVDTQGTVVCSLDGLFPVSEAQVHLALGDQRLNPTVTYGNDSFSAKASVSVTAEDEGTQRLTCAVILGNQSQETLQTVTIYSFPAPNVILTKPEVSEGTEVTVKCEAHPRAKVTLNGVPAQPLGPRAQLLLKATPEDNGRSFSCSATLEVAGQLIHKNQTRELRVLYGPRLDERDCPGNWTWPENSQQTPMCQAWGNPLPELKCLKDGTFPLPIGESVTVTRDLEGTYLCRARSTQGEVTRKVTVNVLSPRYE
The experiment can be described thus: BIAcore; Kon calculated by Koff/KD.

Experiment [2] has the same target. In words: BIAcore; dissociation phase, 1:1 model. (In general: SPR reads the build-up and loss of mass on a sensor chip optically.)
Experiment [3] has the same target. In words: BIAcore; Scatchard plots at steady state.

B1: recombinant soluble wild-type αL I-domain (G128-Y307), E. coli, P20701 153-332 (receptor)
chain: GNVDLVFLFDGSMSLQPDEFQKILDFMKDVMKKLSNTSYQFAAVQFSTSYKTEFDFSDYVKRKDPDALLKHVKHMLLLTNTFGAINYVATEVFREELGARPDATKVLIIITDGEATDSGNIDAAKDIIRYIIGIGKHFQTKESQETLHKFASKPASEFVKILDTFEKLKDLFTELQKKIY
For the molecule B1, the kon in experiment [1] is 2220 M⁻¹ s⁻¹. In addition, the koff in experiment [2] amounted to 3 s⁻¹. The Kd in experiment [3] worked out at 1.35 mM.

In general, kon refers to the rate constant with which the complex forms. For orientation: koff means the rate constant with which the complex falls apart. By Kd is commonly meant the free concentration of one partner at which half of the binding sites on the other are occupied at equilibrium, for simple one-to-one binding.
